The target of assay [1] is SARS-CoV-2 (Wuhan) receptor-binding domain, soluble monovalent RBD (RBD-H) (SARS-CoV-2 (Wuhan), UniProt P0DTC2). Briefly: SPR. The following applies: both partners purified.
The target of assay [2] is Biotinylated SARS-CoV-2 (Wuhan) RBD, held on the SPR chip (SARS-CoV-2 (Wuhan), UniProt P0DTC2, biotin (EZ-Link Sulfo-NHS-LC-biotin); Lys15 within the N-terminal AviTag is named as the biotinylation site). Briefly: SPR. The conditions noted are these: both partners purified.

The text below walks through data of publication doi:10.1101/2023.09.06.556503 (bioRxiv, 2023).

In general, Kd refers to the free concentration of one partner at which half of the binding sites on the other are occupied at equilibrium, for simple one-to-one binding. A low value points to tighter binding.

B1: FD-5D antibody (IgG1) (antibody, V domains shown)
VH: EVQLVESGGGLVQPGGSLRLSCAASGFTFSSYSMNWVRQAPGKGLEWVSYISSSSSTIYYADSVKGRFTISRDNAKNSLYLQMNSLRAEDTAVYYCASPGGITAAGTSVLFGYYGMDVWGQGTTVTVSS
VL: not shown
notes: source: ExpiCHO, transfected, purified (MabSelect SuRe); copies: 2 + 2
Turning to B1, the binding result in assay [1] and in assay [2] was “binds” throughout.

B2: REGN10987 antibody (IgG1) (antibody, V domains shown)
VH: QVQLVESGGGVVQPGRSLRLSCAASGFTFSNYAMYWVRQAPGKGLEWVAVISYDGSNKYYADSVKGRFTISRDNSKNTLYLQMNSLRTEDTAVYYCASGSDYGDYLLVYWGQGTLVTVSS
VL: QSALTQPASVSGSPGQSITISCTGTSSDVGGYNYVSWYQQHPGKAPKLMIYDVSKRPSGVSNRFSGSKSGNTASLTISGLQSEDEADYYCNSLTSISTWVFGGGTKLTVL
For B2, the binding result in assay [2] was “binds”.

B3: IgG1 FD-11A antibody (antibody, V domains shown)
VH: EVQLVESGGGVVQPGRSLRLSCAASGFTFSSYGMHWVRQAPGKGLEWVAVIWYDGSNKYYADSVKGRFTISRDNSKNTLYLQMNSLRAEDTAVYYCAKGPDILTGYYNYYYYGMDVWGQGTMVTVSS
VL: QSVLTQPPSVSGAPGQRVTISCTGSSSNIGAGYDVHWYQQLPGTAPKLLIYGNSNRPSGVPDRFSGSKSGTSASLAITGLQAEDEADYYCQSYDSSLSGFYVVFGGGTKLTVL
notes: also called FD-11A IgG; source: ExpiCHO, transfected, purified (MabSelect SuRe); copies: 2 + 2
In assay [2], B3 showed a Kd of 1230 nM. That is a single-digit micromolar value.

B4: FI-3A antibody (IgG1) (antibody, V domains shown)
VH: EVQLLESGGGLIQPGGSLRLSCAASGFTVSSNYMSWVRQAPGKGLEWVSVIYSGGSTYYADSVKGRFTISRDNSKNTLYLQMNSLRAEDTAVYYCARDHVRPGMNIWGQGTMVTVSS
VL: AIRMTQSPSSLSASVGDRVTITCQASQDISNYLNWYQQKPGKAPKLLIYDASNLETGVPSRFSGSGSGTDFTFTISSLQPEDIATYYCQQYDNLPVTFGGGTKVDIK
notes: as for B1
On to B4, for which the binding result in assay [1] and in assay [2] was “binds” each time.

B5: EY-6A antibody (IgG1) (antibody, V domains shown)
VH: EVQLVESGGGVVQPGRSLRLSCAASAFTFSSYDMHWVRQAPGKGLEWVAVISYDGSNKYYADSVKGRFTISRDNSKNTLYLQMNSLRAEDTAVYYCAKDGGKLWVYYFDYWGQGTLVTVSS
VL: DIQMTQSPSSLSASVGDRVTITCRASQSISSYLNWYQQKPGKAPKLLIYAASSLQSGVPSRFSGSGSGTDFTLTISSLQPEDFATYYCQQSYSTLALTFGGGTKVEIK
notes: copies: 2 + 2
As to B5, the binding result in assay [1] and in assay [2] was “binds” each time.
